Laboratory results from IntAct's records for PubMed 35512704.

B1: Speckle-type POZ protein (Homo sapiens), O43791 (parent)
chain: MSRVPSPPPPAEMSSGPVAESWCYTQIKVVKFSYMWTINNFSFCREEMGEVIKSSTFSSGANDKLKWCLRVNPKGLDEESKDYLSLYLLLVSCPKSEVRAKFKFSILNAKGEETKAMESQRAYRFVQGKDWGFKKFIRRDFLLDEANGLLPDDKLTLFCEVSVVQDSVNISGQNTMNMVKVPECRLADELGGLWENSRFTDCCLCVAGQEFQAHKAILAARSPVFSAMFEHEMEESKKNRVEINDVEPEVFKEMMCFIYTGKAPNLDKMADDLLAAADKYALERLKVMCEDALCSNLSVENAAEILILADLHSADQLKTQAVDFINYHASDVLETSGWKSMVVSHPHLVAEAYRSLASAQCPFLGPPRKRLKQS
partner: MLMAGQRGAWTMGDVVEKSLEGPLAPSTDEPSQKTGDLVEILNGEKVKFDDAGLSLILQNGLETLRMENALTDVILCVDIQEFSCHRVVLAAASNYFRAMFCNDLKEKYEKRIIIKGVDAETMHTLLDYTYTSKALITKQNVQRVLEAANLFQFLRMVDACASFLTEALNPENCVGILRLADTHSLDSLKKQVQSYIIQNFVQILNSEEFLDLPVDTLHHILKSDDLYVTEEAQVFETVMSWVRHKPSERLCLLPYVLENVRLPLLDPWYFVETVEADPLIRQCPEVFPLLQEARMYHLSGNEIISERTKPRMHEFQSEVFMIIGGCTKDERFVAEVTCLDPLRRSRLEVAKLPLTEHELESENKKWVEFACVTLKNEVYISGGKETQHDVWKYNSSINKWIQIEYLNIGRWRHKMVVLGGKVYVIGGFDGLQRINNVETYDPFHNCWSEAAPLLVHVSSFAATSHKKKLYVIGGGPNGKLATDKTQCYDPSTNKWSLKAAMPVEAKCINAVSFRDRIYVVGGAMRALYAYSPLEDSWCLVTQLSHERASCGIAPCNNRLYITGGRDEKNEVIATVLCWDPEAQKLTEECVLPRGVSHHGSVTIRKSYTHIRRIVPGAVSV
B2: Speckle-type POZ protein (Homo sapiens), O43791 (parent)
chain: B1 chain
partner: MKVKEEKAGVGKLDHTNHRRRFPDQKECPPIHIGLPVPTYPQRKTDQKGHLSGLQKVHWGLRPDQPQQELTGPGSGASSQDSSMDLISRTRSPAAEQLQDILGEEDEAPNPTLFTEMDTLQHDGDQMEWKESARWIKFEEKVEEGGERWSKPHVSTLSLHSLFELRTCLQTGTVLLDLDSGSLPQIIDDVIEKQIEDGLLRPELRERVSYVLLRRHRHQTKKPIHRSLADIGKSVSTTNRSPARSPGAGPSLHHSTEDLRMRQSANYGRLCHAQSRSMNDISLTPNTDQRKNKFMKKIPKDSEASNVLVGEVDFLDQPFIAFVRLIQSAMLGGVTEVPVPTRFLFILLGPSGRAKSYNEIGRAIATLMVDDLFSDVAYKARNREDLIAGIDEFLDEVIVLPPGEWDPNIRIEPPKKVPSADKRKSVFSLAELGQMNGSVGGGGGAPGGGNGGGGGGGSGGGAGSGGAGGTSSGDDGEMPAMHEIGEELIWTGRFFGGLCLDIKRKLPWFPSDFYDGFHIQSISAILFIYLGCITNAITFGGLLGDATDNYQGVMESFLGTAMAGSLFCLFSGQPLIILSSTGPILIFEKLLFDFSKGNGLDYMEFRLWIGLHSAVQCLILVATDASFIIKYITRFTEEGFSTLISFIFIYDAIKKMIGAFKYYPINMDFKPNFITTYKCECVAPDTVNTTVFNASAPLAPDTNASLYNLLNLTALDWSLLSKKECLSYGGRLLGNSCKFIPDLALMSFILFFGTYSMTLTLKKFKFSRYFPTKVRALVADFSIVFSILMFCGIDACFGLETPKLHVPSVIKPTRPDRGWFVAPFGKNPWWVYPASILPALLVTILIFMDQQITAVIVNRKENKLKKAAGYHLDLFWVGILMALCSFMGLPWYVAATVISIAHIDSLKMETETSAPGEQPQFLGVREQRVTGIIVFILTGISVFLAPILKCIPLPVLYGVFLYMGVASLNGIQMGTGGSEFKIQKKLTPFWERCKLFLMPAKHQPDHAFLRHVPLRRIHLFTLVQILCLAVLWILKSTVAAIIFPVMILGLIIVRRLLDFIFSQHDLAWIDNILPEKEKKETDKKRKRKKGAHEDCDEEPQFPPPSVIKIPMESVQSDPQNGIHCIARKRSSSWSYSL
B3: Speckle-type POZ protein (Homo sapiens), O43791 (parent)
chain: B1 chain
partner: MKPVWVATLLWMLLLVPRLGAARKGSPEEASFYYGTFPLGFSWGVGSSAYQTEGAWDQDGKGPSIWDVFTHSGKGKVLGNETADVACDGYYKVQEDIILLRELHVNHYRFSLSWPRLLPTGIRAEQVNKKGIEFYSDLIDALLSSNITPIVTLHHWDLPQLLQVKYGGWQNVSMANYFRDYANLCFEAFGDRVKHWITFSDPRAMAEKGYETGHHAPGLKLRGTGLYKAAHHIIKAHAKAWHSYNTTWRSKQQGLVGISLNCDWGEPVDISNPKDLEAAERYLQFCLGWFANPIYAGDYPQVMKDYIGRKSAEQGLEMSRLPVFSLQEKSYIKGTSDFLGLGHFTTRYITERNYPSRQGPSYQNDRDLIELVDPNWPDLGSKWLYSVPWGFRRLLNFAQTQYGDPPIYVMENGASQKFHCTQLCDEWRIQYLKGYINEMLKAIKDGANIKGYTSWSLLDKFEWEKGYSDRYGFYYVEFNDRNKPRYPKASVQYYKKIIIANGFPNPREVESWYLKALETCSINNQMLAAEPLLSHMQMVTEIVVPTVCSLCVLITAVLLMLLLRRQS
B4: Speckle-type POZ protein (Homo sapiens), O43791 (parent)
chain: B1 chain
partner: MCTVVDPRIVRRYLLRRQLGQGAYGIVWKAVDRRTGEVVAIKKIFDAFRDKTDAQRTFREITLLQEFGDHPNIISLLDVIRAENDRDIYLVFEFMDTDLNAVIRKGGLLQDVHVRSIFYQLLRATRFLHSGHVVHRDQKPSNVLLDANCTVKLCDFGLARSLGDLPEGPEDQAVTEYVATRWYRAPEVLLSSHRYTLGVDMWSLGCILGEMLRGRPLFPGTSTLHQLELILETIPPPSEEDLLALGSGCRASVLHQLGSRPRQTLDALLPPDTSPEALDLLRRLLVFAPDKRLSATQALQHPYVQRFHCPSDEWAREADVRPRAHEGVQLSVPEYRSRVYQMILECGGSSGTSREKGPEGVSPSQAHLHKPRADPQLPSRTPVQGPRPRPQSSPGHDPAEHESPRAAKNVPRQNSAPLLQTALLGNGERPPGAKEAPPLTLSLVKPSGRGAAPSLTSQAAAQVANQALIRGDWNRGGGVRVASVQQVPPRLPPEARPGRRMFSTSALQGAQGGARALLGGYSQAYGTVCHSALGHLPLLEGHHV
B5: Speckle-type POZ protein (Homo sapiens), O43791 (parent)
chain: B1 chain
partner: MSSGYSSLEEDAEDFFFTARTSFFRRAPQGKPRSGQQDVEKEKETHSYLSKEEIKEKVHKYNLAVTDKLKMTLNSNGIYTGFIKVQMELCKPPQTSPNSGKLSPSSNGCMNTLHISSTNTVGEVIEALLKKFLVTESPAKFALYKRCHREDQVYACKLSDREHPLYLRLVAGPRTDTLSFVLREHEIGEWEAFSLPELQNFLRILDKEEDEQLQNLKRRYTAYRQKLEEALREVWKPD
B6: Speckle-type POZ protein (Homo sapiens), O43791 (parent)
chain: B1 chain
partner: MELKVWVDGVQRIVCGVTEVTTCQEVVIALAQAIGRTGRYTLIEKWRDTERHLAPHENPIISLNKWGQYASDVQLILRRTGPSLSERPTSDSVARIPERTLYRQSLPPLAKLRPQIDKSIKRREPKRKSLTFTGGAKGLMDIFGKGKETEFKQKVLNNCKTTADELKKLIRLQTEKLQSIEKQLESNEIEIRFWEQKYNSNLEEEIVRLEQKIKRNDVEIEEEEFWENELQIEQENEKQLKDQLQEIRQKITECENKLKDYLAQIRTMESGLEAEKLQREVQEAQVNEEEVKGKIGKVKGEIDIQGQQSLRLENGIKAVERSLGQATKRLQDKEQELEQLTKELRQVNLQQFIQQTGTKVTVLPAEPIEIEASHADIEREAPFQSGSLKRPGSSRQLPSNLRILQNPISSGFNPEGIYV

Variants of: B1
Details: with klhl6_human KLHL6, Q8WZ60

| Variant | effect of a mutation on the interaction |
| --- | --- |
| F102C | with no effect |

Variants of: B1
Details: with klhl6_human KLHL6, Q8WZ60
Remark: another data set of the same source

| Variant | effect of a mutation on the interaction |
| --- | --- |
| F133L | with no effect |

Variants of: B1
Details: with klhl6_human KLHL6, Q8WZ60
Remark: another data set of the same source

| Variant | effect of a mutation on the interaction |
| --- | --- |
| F133V | with no effect |

Variants of: B1
Details: with klhl6_human KLHL6, Q8WZ60
Remark: another data set of the same source

| Variant | effect of a mutation on the interaction |
| --- | --- |
| Y87C | with no effect |

Variants of: B2
Details: with s4a5_human SLC4A5, Q9BY07

| Variant | effect of a mutation on the interaction |
| --- | --- |
| F102C | with no effect |

Variants of: B2
Details: with s4a5_human SLC4A5, Q9BY07
Remark: another data set of the same source

| Variant | effect of a mutation on the interaction |
| --- | --- |
| Y87C | with no effect |

Variants of: B2
Details: with s4a5_human SLC4A5, Q9BY07
Remark: another data set of the same source

| Variant | effect of a mutation on the interaction |
| --- | --- |
| F133L | with no effect |

Variants of: B2
Details: with s4a5_human SLC4A5, Q9BY07
Remark: another data set of the same source

| Variant | effect of a mutation on the interaction |
| --- | --- |
| F133V | with no effect |

Variants of: B3
Details: with lctl_human LCTL

| Variant | effect of a mutation on the interaction |
| --- | --- |
| Y87C | with no effect |

Variants of: B3
Details: with lctl_human LCTL
Remark: another data set of the same source

| Variant | effect of a mutation on the interaction |
| --- | --- |
| F133L | with no effect |

Variants of: B3
Details: with lctl_human LCTL
Remark: another data set of the same source

| Variant | effect of a mutation on the interaction |
| --- | --- |
| F133V | with no effect |

Variants of: B3
Details: with lctl_human LCTL
Remark: another data set of the same source

| Variant | effect of a mutation on the interaction |
| --- | --- |
| F102C | with no effect |

Variants of: B4
Details: with mk15_human MAPK15, Q8TD08

| Variant | effect of a mutation on the interaction |
| --- | --- |
| Y87C | with no effect |

Variants of: B4
Details: with mk15_human MAPK15, Q8TD08
Remark: another data set of the same source

| Variant | effect of a mutation on the interaction |
| --- | --- |
| F102C | with no effect |

Variants of: B4
Details: with mk15_human MAPK15, Q8TD08
Remark: another data set of the same source

| Variant | effect of a mutation on the interaction |
| --- | --- |
| F133L | with no effect |

Variants of: B4
Details: with mk15_human MAPK15, Q8TD08
Remark: another data set of the same source

| Variant | effect of a mutation on the interaction |
| --- | --- |
| F133V | with no effect |

Variants of: B5
Details: with rasf3_human RASSF3, Q86WH2

| Variant | effect of a mutation on the interaction |
| --- | --- |
| F133V | with no effect |

Variants of: B5
Details: with rasf3_human RASSF3, Q86WH2
Remark: another data set of the same source

| Variant | effect of a mutation on the interaction |
| --- | --- |
| F133L | with no effect |

Variants of: B5
Details: with rasf3_human RASSF3, Q86WH2
Remark: another data set of the same source

| Variant | effect of a mutation on the interaction |
| --- | --- |
| Y87C | with no effect |

Variants of: B5
Details: with rasf3_human RASSF3, Q86WH2
Remark: another data set of the same source

| Variant | effect of a mutation on the interaction |
| --- | --- |
| F102C | with no effect |

Variants of: B6
Details: with rasf8_human RASSF8, Q8NHQ8

| Variant | effect of a mutation on the interaction |
| --- | --- |
| F133L | with no effect |

Variants of: B6
Details: with rasf8_human RASSF8, Q8NHQ8
Remark: another data set of the same source

| Variant | effect of a mutation on the interaction |
| --- | --- |
| F133V | with no effect |

Variants of: B6
Details: with rasf8_human RASSF8, Q8NHQ8
Remark: another data set of the same source

| Variant | effect of a mutation on the interaction |
| --- | --- |
| Y87C | with no effect |

Variants of: B6
Details: with rasf8_human RASSF8, Q8NHQ8
Remark: another data set of the same source

| Variant | effect of a mutation on the interaction |
| --- | --- |
| F102C | with no effect |
